# According to paper PMC9117659, “Phase transition and remodeling complex assembly are important for SS18-SSX oncogenic activity in synovial sarcomas” (Nature Communications, 2022):
# B1: Human SS18 (residues 1-387), purified recombinant [human] / BRG1^(1-282), N-terminal 282-residue fragment of BRG1 [human] (parent complex)
# chain 1: MSVAFAAPRQRGKGEITPAAIQKMLDDNNHLIQCIMDSQNKGKTSECSQYQQMLHTNLVYLATIADSNQNMQSLLPAPPTQNMPMGPGGMNQSGPPPPPRSHNMPSDGMVGGGPPAPHMQNQMNGQMPGPNHMPMQGPGPNQLNMTNSSMNMPSSSHGSMGGYNHSVPSSQSMPVQNQMTMSQGQPMGNYGPRPNMSMQPNQGPMMHQQPPSQQYNMPQGGGQHYQGQQPPMGMMGQVNQGNHMMGQRQIPPYRPPQQGPPQQYSGQEDYYGDQYSHGGQGPPEGMNQQYYPDGNSQYGQQQDAYQGPPPQQGYPPQQQQYPGQQGYPGQQQGYGPSQGGPGPQYPNYPQGQGQQYGGYRPTQPGPPQPPQQRPYGYDQGQYGNYQQ
# chain 2: MSTPDPPLGGTPRPGPSPGPGPSPGAMLGPSPGPSPGSAHSMMGPSPGPPSAGHPIPTQGPGGYPQDNMHQMHKPMESMHEKGMSDDPRYNQMKGMGMRSGGHAGMGPPPSPMDQHSQGYPSPLGGSEHASSPVPASGPSSGPQMSSGPGGAPLDGADPQALGQQNRGPTPFNQNQLHQLRAQIMAYKMLARGQPLPDHLQMAVQGKRPMPGMQQQMPTLPPPSVSATGPGPGPGPGPGPGPGPAPPNYSRPHGMGGPNMPPPGPSGVPPGMPGQPPGGPPK
# Variants of: B1
# Test: sedimentation assay; 60 µM each protein; parent: 65; read off a plot
row,screen value [%],Variant
1,~6,"chain 1 I32E, chain 1 L54E, chain 1 A65E"
